Laboratory results: paper PMC2063867 (The Journal of Cell Biology, 2006)

T1: FLAG-GIT1 (synthesized in vitro) (UniProt Q9Y2X7 1-761)
T1 sequence: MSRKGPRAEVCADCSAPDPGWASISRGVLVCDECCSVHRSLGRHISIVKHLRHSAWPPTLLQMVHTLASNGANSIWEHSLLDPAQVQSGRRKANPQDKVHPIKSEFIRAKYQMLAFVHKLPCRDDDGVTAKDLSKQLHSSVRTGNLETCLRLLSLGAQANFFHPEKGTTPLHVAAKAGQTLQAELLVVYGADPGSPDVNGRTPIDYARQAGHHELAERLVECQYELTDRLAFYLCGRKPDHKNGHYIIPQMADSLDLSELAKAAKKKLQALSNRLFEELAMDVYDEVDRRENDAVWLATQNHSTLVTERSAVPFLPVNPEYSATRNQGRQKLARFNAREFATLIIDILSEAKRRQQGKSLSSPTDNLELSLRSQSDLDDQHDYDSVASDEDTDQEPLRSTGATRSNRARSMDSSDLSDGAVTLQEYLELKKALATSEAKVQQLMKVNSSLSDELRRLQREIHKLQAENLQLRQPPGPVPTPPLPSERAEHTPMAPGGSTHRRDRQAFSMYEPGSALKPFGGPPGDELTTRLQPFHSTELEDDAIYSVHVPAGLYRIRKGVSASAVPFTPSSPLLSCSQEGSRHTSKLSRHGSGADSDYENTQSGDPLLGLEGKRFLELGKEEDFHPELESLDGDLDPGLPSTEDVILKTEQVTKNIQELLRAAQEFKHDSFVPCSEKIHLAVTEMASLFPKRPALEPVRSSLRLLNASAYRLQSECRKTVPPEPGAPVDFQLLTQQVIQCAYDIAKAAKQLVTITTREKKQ


Columns and labels:
Experiment in all cases: co-IP
[1] = target: T1, FLAG-GIT1 (synthesized in vitro)
S273A-paxillin-GFP = S273A-paxillin-GFP (UniProt P49024 1-559, S273A)
S273D-paxillin-GFP = S273D-paxillin-GFP (UniProt P49024 1-559, S273D)
Sequence of S273D-paxillin-GFP (P49024 whole entry S273D): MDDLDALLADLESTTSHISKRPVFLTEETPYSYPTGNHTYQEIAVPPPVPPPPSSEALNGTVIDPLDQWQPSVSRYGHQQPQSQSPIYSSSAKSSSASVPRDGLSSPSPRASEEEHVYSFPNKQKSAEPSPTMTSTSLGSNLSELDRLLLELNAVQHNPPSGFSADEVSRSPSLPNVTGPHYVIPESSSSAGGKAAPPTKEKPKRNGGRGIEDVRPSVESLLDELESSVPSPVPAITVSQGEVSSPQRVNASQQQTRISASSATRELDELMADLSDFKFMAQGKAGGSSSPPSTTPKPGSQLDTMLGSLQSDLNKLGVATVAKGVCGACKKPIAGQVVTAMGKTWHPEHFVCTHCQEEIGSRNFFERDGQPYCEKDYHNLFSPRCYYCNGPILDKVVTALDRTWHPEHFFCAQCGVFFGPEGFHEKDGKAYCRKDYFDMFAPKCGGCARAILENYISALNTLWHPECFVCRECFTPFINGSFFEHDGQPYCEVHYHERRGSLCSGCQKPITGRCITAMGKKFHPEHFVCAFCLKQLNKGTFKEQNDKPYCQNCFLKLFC

Sequence of S273A-paxillin-GFP (P49024 whole entry S273A): as the sequence (P49024 whole entry S273D) above, with D273A counted along it

Binder | fold increase of phospho–S273-paxillin bound to FLAG-GIT1 with CA- versus KD-PAK [1] | fold decrease of GIT1 binding against WT-paxillin (S273A-paxillin-GFP) | fold increase of GIT1 binding against WT-paxillin (S273D-paxillin-GFP)
phospho–S273-paxillin (untagged WT-paxillin synthesized in vitro and incubated with CA-myc-PAK1) (natural protein, phosphoserine at 273) not shown | 7 fold | – | –
FLAG-GIT1 (expressed in CHO-K1 cells) (natural protein) MSRKGPRAEVCADCSAPDPGWASISRGVLVCDECCSVHRSLGRHISIVKHLRHSAWPPTLLQMVHTLASNGANSIWEHSLLDPAQVQSGRRKANPQDKVHPIKSEFIRAKYQMLAFVHKLPCRDDDGVTAKDLSKQLHSSVRTGNLETCLRLLSLGAQANFFHPEKGTTPLHVAAKAGQTLQAELLVVYGADPGSPDVNGRTPIDYARQAGHHELAERLVECQYELTDRLAFYLCGRKPDHKNGHYIIPQMADSLDLSELAKAAKKKLQALSNRLFEELAMDVYDEVDRRENDAVWLATQNHSTLVTERSAVPFLPVNPEYSATRNQGRQKLARFNAREFATLIIDILSEAKRRQQGKSLSSPTDNLELSLRSQSDLDDQHDYDSVASDEDTDQEPLRSTGATRSNRARSMDSSDLSDGAVTLQEYLELKKALATSEAKVQQLMKVNSSLSDELRRLQREIHKLQAENLQLRQPPGPVPTPPLPSERAEHTPMAPGGSTHRRDRQAFSMYEPGSALKPFGGPPGDELTTRLQPFHSTELEDDAIYSVHVPAGLYRIRKGVSASAVPFTPSSPLLSCSQEGSRHTSKLSRHGSGADSDYENTQSGDPLLGLEGKRFLELGKEEDFHPELESLDGDLDPGLPSTEDVILKTEQVTKNIQELLRAAQEFKHDSFVPCSEKIHLAVTEMASLFPKRPALEPVRSSLRLLNASAYRLQSECRKTVPPEPGAPVDFQLLTQQVIQCAYDIAKAAKQLVTITTREKKQ | – | 2 fold | ~3 fold
